“And” between values parts separate entries of the source, which are not always exact repeats. Equal values may be shown once. Non-standard residues stand in square brackets, D forms with d. No end group written: not given here. NMeI = CC[C@H](C)[C@H](NC)C(=O)O; hArg = N=C(N)NCCCC[C@H](N)C(=O)O
B1: LR(N-Me)IKYHR (peptide)
peptide: LR[NMeI]KYHR
B2: LTIKLWH (peptide)
peptide: LTIKLWH
B3: rfhyfrk (peptide)
peptide: [dR][dF][dH][dY][dF][dR][dK]
B4: Ile-homoArg-Ile-homoArg-Arg-Trp-Arg (peptide)
peptide: I[hArg]I[hArg]RWR
B5: IQIYRYK (peptide)
peptide: IQIYRYK
B6: farwhrr (peptide)
peptide: [dF][dA][dR][dW][dH][dR][dR]
B7: rfyrhhr (peptide)
peptide: [dR][dF][dY][dR][dH][dH][dR]
B8: IRIARYR (peptide)
peptide: IRIARYR
B9: LYIRHK (peptide)
peptide: LYIRHK
B10: ywqwrqs (peptide)
peptide: [dY][dW][dQ][dW][dR][dQ][dS]
B11: LYIRTWH (peptide)
peptide: LYIRTWH
B12: TLIIYHR (peptide)
peptide: TLIIYHR
B13: LYIFRHT (peptide)
peptide: LYIFRHT
B14: fwrhkhr (peptide)
peptide: [dF][dW][dR][dH][dK][dH][dR]
B15: LTIRLTH (peptide)
peptide: LTIRLTH
B16: wwrfhwr (peptide)
peptide: [dW][dW][dR][dF][dH][dW][dR]
B17: fwrwhar (peptide)
peptide: [dF][dW][dR][dW][dH][dA][dR]
B18: LFIFYHR (peptide)
peptide: LFIFYHR
B19: IYIYHQR (peptide)
peptide: IYIYHQR
B20: LTIMLWH (peptide)
peptide: LTIMLWH
B21: swrwhhr (peptide)
peptide: [dS][dW][dR][dW][dH][dH][dR]
B22: LTIQLWH (peptide)
peptide: LTIQLWH
B23: wwrrhhr (peptide)
peptide: [dW][dW][dR][dR][dH][dH][dR]
B24: IRIRRAA (peptide)
peptide: IRIRRAA
B25: WYIRLTH (peptide)
peptide: WYIRLTH
B26: WYIRLWK (peptide)
peptide: WYIRLWK
B27: fwrwhaa (peptide)
peptide: [dF][dW][dR][dW][dH][dA][dA]
B28: rqmqyrr (peptide)
peptide: [dR][dQ][dM][dQ][dY][dR][dR]
B29: WTRIYYH (peptide)
peptide: WTRIYYH
B30: WYIRLWH (peptide)
peptide: WYIRLWH
B31: RLYIRLS (peptide)
peptide: RLYIRLS
B32: LYIRTYH (peptide)
peptide: LYIRTYH
B33: rqhyhwr (peptide)
peptide: [dR][dQ][dH][dY][dH][dW][dR]
B34: awrwhrr (peptide)
peptide: [dA][dW][dR][dW][dH][dR][dR]
B35: TYIRYLR (peptide)
peptide: TYIRYLR
B36: WYIRTYH (peptide)
peptide: WYIRTYH
B37: LLIKYHA (peptide)
peptide: LLIKYHA
B38: WTIRYYH (peptide)
peptide: WTIRYYH
B39: fwrahrr (peptide)
peptide: [dF][dW][dR][dA][dH][dR][dR]
B40: IRIRAAR (peptide)
peptide: IRIRAAR
B41: yqwqyqr (peptide)
peptide: [dY][dQ][dW][dQ][dY][dQ][dR]
B42: IRIRHYR (peptide)
peptide: IRIRHYR
B43: WTRILWH (peptide)
peptide: WTRILWH
B44: shwrrhr (peptide)
peptide: [dS][dH][dW][dR][dR][dH][dR]
B45: LLIKYHR (peptide)
peptide: LLIKYHR
B46: LTIRTWH (peptide)
peptide: LTIRTWH
B47: IRFRRYR (peptide)
peptide: IRFRRYR
B48: fwawhrr (peptide)
peptide: [dF][dW][dA][dW][dH][dR][dR]
B49: rwrylrr (peptide)
peptide: [dR][dW][dR][dY][dL][dR][dR]
B50: LLIAYHR (peptide)
peptide: LLIAYHR
B51: LFIYYQR (peptide)
peptide: LFIYYQR
B52: hwrwrwr (peptide)
peptide: [dH][dW][dR][dW][dR][dW][dR]
B53: WTRIYLH (peptide)
peptide: WTRIYLH
B54: hwrwlrr (peptide)
peptide: [dH][dW][dR][dW][dL][dR][dR]
B55: IRIRRYA (peptide)
peptide: IRIRRYA
B56: LRIRHVK (peptide)
peptide: LRIRHVK
B57: LLIKYAR (peptide)
peptide: LLIKYAR
B58: WTKITLH (peptide)
peptide: WTKITLH
B59: IRVYKYS (peptide)
peptide: IRVYKYS
B60: LLIKAHR (peptide)
peptide: LLIKAHR
B61: krwrhqr (peptide)
peptide: [dK][dR][dW][dR][dH][dQ][dR]
B62: kqwyhwr (peptide)
peptide: [dK][dQ][dW][dY][dH][dW][dR]
B63: YYIRYYK (peptide)
peptide: YYIRYYK

Target: T1, Nat1 (LTIITLE) (also: TFA salt)
T1 peptide: LTIITLE
Assay: cell-based or functional assay
For B1, the “IC50, Thiofiavin T aggregation assay” value was 334 nM.
B2 was tested, and the “IC50, Thiofiavin T aggregation assay” value was 260 nM and 232 nM.
For B3, the “IC50, Thiofiavin T aggregation assay” value was 51 nM.
B4 was tested, and the “IC50, Thiofiavin T aggregation assay” value was 49 nM.
For B5, the “IC50, Thiofiavin T aggregation assay” value was 444 nM.
In the case of B6, the “IC50, Thiofiavin T aggregation assay” value is reported as 287 nM.
B7 was tested, and the “IC50, Thiofiavin T aggregation assay” value was 244 nM.
For B8, the “IC50, Thiofiavin T aggregation assay” value was 44 nM.
For B9, the “IC50, Thiofiavin T aggregation assay” value was 316 nM.
B10 was tested, and the “IC50, Thiofiavin T aggregation assay” value was 338 nM.
With B11 the “IC50, Thiofiavin T aggregation assay” value was 302 nM.
In the case of B12, the “IC50, Thiofiavin T aggregation assay” value is reported as 357 nM.
For B13, the “IC50, Thiofiavin T aggregation assay” value was 363 nM.
For B14, the “IC50, Thiofiavin T aggregation assay” value was 264 nM and 161 nM.
In the case of B15, the “IC50, Thiofiavin T aggregation assay” value is reported as 329 nM.
In the case of B16, the “IC50, Thiofiavin T aggregation assay” value is reported as 472 nM.
With B17 the “IC50, Thiofiavin T aggregation assay” value was 245 nM.
With B18 the “IC50, Thiofiavin T aggregation assay” value was 476 nM.
For B19, the “IC50, Thiofiavin T aggregation assay” value was 269 nM.
B20 was tested, and the “IC50, Thiofiavin T aggregation assay” value was 425 nM.
For B21, the “IC50, Thiofiavin T aggregation assay” value was 301 nM.
B22 was tested, and the “IC50, Thiofiavin T aggregation assay” value was 481 nM.
B23 was tested, and the “IC50, Thiofiavin T aggregation assay” value was 247 nM.
With B24 the “IC50, Thiofiavin T aggregation assay” value was 248 nM.
B25 was tested, and the “IC50, Thiofiavin T aggregation assay” value was 369 nM.
For B26, the “IC50, Thiofiavin T aggregation assay” value was 262 nM.
In the case of B27, the “IC50, Thiofiavin T aggregation assay” value is reported as 458 nM.
In the case of B28, the “IC50, Thiofiavin T aggregation assay” value is reported as 236 nM.
For B29, the “IC50, Thiofiavin T aggregation assay” value was 420 nM.
B30 was tested, and the “IC50, Thiofiavin T aggregation assay” value was 288 nM.
With B31 the “IC50, Thiofiavin T aggregation assay” value was 284 nM.
B32 was tested, and the “IC50, Thiofiavin T aggregation assay” value was 257 nM and 463 nM.
With B33 the “IC50, Thiofiavin T aggregation assay” value was 296 nM.
In the case of B34, the “IC50, Thiofiavin T aggregation assay” value is reported as 267 nM.
B35 was tested, and the “IC50, Thiofiavin T aggregation assay” value was 412 nM.
B36 was tested, and the “IC50, Thiofiavin T aggregation assay” value was 287 nM.
B37 was tested, and the “IC50, Thiofiavin T aggregation assay” value was 234 nM.
In the case of B38, the “IC50, Thiofiavin T aggregation assay” value is reported as 473 nM and 214 nM.
B39 was tested, and the “IC50, Thiofiavin T aggregation assay” value was 293 nM.
B40 was tested, and the “IC50, Thiofiavin T aggregation assay” value was 451 nM.
In the case of B41, the “IC50, Thiofiavin T aggregation assay” value is reported as 354 nM.
For B42, the “IC50, Thiofiavin T aggregation assay” value was 14 nM.
B43 was tested, and the “IC50, Thiofiavin T aggregation assay” value was 398 nM.
B44 was tested, and the “IC50, Thiofiavin T aggregation assay” value was 338 nM.
In the case of B45, the “IC50, Thiofiavin T aggregation assay” value is reported as 248 nM and 489 nM.
For B46, the “IC50, Thiofiavin T aggregation assay” value was 295 nM.
B47 was tested, and the “IC50, Thiofiavin T aggregation assay” value was 496 nM.
With B48 the “IC50, Thiofiavin T aggregation assay” value was 239 nM.
For B49, the “IC50, Thiofiavin T aggregation assay” value was 49 nM.
B50 was tested, and the “IC50, Thiofiavin T aggregation assay” value was 466 nM.
For B51, the “IC50, Thiofiavin T aggregation assay” value was 440 nM.
B52 was tested, and the “IC50, Thiofiavin T aggregation assay” value was 245 nM.
B53 was tested, and the “IC50, Thiofiavin T aggregation assay” value was 240 nM.
In the case of B54, the “IC50, Thiofiavin T aggregation assay” value is reported as 43 nM.
In the case of B55, the “IC50, Thiofiavin T aggregation assay” value is reported as 44 nM.
With B56 the “IC50, Thiofiavin T aggregation assay” value was 246 nM.
With B57 the “IC50, Thiofiavin T aggregation assay” value was 301 nM.
With B58 the “IC50, Thiofiavin T aggregation assay” value was 427 nM.
B59 was tested, and the “IC50, Thiofiavin T aggregation assay” value was 480 nM.
With B60 the “IC50, Thiofiavin T aggregation assay” value was 258 nM.
B61 was tested, and the “IC50, Thiofiavin T aggregation assay” value was 245 nM.
B62 was tested, and the “IC50, Thiofiavin T aggregation assay” value was 252 nM.
B63 was tested, and the “IC50, Thiofiavin T aggregation assay” value was 494 nM.
